According to patent US20260167699A1 (Chugai, published 2026):
Numbering of substitutions follows the chain as printed.

T1: FcγRIIa(H) extracellular domain, His-tagged (human, UniProt P12318 34-217)
T1 construct: extracellular domain; also called 2aH
T1 sequence: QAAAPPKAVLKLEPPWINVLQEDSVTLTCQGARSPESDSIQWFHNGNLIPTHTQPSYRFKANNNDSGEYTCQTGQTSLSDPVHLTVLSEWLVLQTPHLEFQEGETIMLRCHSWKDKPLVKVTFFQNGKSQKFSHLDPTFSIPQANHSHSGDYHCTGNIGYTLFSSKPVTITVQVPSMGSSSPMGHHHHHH

T2: FcγRIIa(R) extracellular domain, His-tagged (human, UniProt P12318 34-217)
T2 construct: extracellular domain; also called 2aR
T2 sequence: T1 sequence with H134R

T3: FcγRIIb extracellular domain, His-tagged (human, UniProt P31994 43-217)
T3 construct: extracellular domain; also called 2b
T3 sequence: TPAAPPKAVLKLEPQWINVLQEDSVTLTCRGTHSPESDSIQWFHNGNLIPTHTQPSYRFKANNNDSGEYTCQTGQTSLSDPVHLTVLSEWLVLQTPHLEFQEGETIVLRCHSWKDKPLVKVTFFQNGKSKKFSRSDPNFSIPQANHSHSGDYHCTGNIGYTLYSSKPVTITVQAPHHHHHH

B1: GpH7-A5/GpH7-B3 variant H268_14T/GpL16-k0 (antibody, human IgG1, kappa)
heavy 1: not shown
heavy 2: not shown
light: DIVMTQSPLSLPVTPGEPASISCQASESLVHSNRNTYLHWYLQKPGQSPQLLIYKVSNRFSGVPDRFSGSGSGTDFTLKISRVEAEDVGVYYCSQNTHVPPTFGQGTKVEIERTVAAPSVFIFPPSDEQLKSGTASVVCLLNNFYPREAKVQWKVDNALQSGNSQESVTEQDSKDSTYSLSSTLTLSKADYEKHKVYACEVTHQGLSSPVTKSFNRGEC
B2: GpH7-A5/GpH7-B3 variant D270_08L/GpL16-k0 (antibody, human IgG1, kappa)
heavy 1: not shown
heavy 2: not shown
light: B1 light
B3: GpH7-A5/GpH7-B3 variant D270_10E/GpL16-k0 (antibody, human IgG1, kappa)
heavy 1: not shown
heavy 2: not shown
light: B1 light
B4: GpH7-A5/GpH7-B3 variant D270_14T/GpL16-k0 (antibody, human IgG1, kappa)
heavy 1: not shown
heavy 2: not shown
light: B1 light
B5: GpH7-A5/GpH7-B3 variant E269_01G/GpL16-k0 (antibody, human IgG1, kappa)
heavy 1: not shown
heavy 2: not shown
light: B1 light
B6: GpH7-A5/GpH7-B3 variant E269_02A/GpL16-k0 (antibody, human IgG1, kappa)
heavy 1: not shown
heavy 2: not shown
light: B1 light
B7: GpH7-A5/GpH7-B3 variant E269_09D/GpL16-k0 (antibody, human IgG1, kappa)
heavy 1: not shown
heavy 2: not shown
light: B1 light
B8: GpH7-A5/GpH7-B3 variant E269_13S/GpL16-k0 (antibody, human IgG1, kappa)
heavy 1: not shown
heavy 2: not shown
light: B1 light
B9: GpH7-A5/GpH7-B3 variant E269_14T/GpL16-k0 (antibody, human IgG1, kappa)
heavy 1: not shown
heavy 2: not shown
light: B1 light
B10: GpH7-A5/GpH7-B3 variant G236_02A/GpL16-k0 (antibody, human IgG1, kappa)
heavy 1: not shown
heavy 2: not shown
light: B1 light
B11: GpH7-A5/GpH7-B3 variant G236_09D/GpL16-k0 (antibody, human IgG1, kappa)
heavy 1: not shown
heavy 2: not shown
light: B1 light
B12: GpH7-A5/GpH7-B3 variant G236_10E/GpL16-k0 (antibody, human IgG1, kappa)
heavy 1: not shown
heavy 2: not shown
light: B1 light
B13: GpH7-A5/GpH7-B3 variant G236_13S/GpL16-k0 (antibody, human IgG1, kappa)
heavy 1: not shown
heavy 2: not shown
light: B1 light
B14: GpH7-A5/GpH7-B3 variant G236_20W/GpL16-k0 (antibody, human IgG1, kappa)
heavy 1: not shown
heavy 2: not shown
light: B1 light
B15: GpH7-A5/GpH7-B3 variant H268_01G/GpL16-k0 (antibody, human IgG1, kappa)
heavy 1: not shown
heavy 2: not shown
light: B1 light
B16: GpH7-A5/GpH7-B3 variant H268_02A/GpL16-k0 (antibody, human IgG1, kappa)
heavy 1: not shown
heavy 2: not shown
light: B1 light
B17: GpH7-A5/GpH7-B3 variant H268_03V/GpL16-k0 (antibody, human IgG1, kappa)
heavy 1: not shown
heavy 2: not shown
light: B1 light
B18: GpH7-A5/GpH7-B3 variant H268_04F/GpL16-k0 (antibody, human IgG1, kappa)
heavy 1: not shown
heavy 2: not shown
light: B1 light
B19: GpH7-A5/GpH7-B3 variant H268_05P/GpL16-k0 (antibody, human IgG1, kappa)
heavy 1: not shown
heavy 2: not shown
light: B1 light
B20: GpH7-A5/GpH7-B3 variant H268_06M/GpL16-k0 (antibody, human IgG1, kappa)
heavy 1: not shown
heavy 2: not shown
light: B1 light
B21: GpH7-A5/GpH7-B3 variant H268_07I/GpL16-k0 (antibody, human IgG1, kappa)
heavy 1: not shown
heavy 2: not shown
light: B1 light
B22: GpH7-A5/GpH7-B3 variant H268_08L/GpL16-k0 (antibody, human IgG1, kappa)
heavy 1: not shown
heavy 2: not shown
light: B1 light
B23: GpH7-A5/GpH7-B3 variant H268_09D/GpL16-k0 (antibody, human IgG1, kappa)
heavy 1: not shown
heavy 2: not shown
light: B1 light
B24: GpH7-A5/GpH7-B3 variant H268_10E/GpL16-k0 (antibody, human IgG1, kappa)
heavy 1: not shown
heavy 2: not shown
light: B1 light
B25: GpH7-A5/GpH7-B3 variant H268_11K/GpL16-k0 (antibody, human IgG1, kappa)
heavy 1: not shown
heavy 2: not shown
light: B1 light
B26: GpH7-A5/GpH7-B3 variant Y300_10E/GpL16-k0 (antibody, human IgG1, kappa)
heavy 1: not shown
heavy 2: not shown
light: B1 light
notes: He Ab; copies: 1 + 1 + 2
B27: GpH7-A5/GpH7-B3 variant Y300_11K/GpL16-k0 (antibody, human IgG1, kappa)
heavy 1: not shown
heavy 2: not shown
light: B1 light
notes: He Ab; copies: 1 + 1 + 2
B28: GpH7-A5/GpH7-B3 variant Y300_13S/GpL16-k0 (antibody, human IgG1, kappa)
heavy 1: not shown
heavy 2: not shown
light: B1 light
notes: He Ab; copies: 1 + 1 + 2
B29: GpH7-A5/GpH7-B3 variant Y300_14T/GpL16-k0 (antibody, human IgG1, kappa)
heavy 1: not shown
heavy 2: not shown
light: B1 light
notes: He Ab; copies: 1 + 1 + 2
B30: GpH7-A5/GpH7-B3 variant Y300_16H/GpL16-k0 (antibody, human IgG1, kappa)
heavy 1: not shown
heavy 2: not shown
light: B1 light
notes: He Ab; copies: 1 + 1 + 2
B31: GpH7-A5/GpH7-B3 variant Y300_18N/GpL16-k0 (antibody, human IgG1, kappa)
heavy 1: not shown
heavy 2: not shown
light: B1 light
notes: He Ab; copies: 1 + 1 + 2
B32: GpH7-A5/GpH7-B3 variant Y300_19Q/GpL16-k0 (antibody, human IgG1, kappa)
heavy 1: not shown
heavy 2: not shown
light: B1 light
notes: He Ab; copies: 1 + 1 + 2
B33: GpH7-A5/GpH7-B3 variant Y300_20W/GpL16-k0 (antibody, human IgG1, kappa)
heavy 1: not shown
heavy 2: not shown
light: B1 light
notes: He Ab; copies: 1 + 1 + 2

Biological target: T1, FcγRIIa(H) extracellular domain, …
Test: SPR, vs GpH7-A5/GpH7-B3/GpL16-k0 =100

He/Con 2aH	Binder
93.5 % of control	B1
81.8 % of control	B2
111 % of control	B3
81.3 % of control	B4
72.3 % of control	B5
78.7 % of control	B6
105 % of control	B7
70.7 % of control	B8
70.3 % of control	B9
145 % of control	B10
93.5 % of control	B11
116 % of control	B12
140 % of control	B13
153 % of control	B14
100 % of control	B15
115 % of control	B16
100 % of control	B17
112 % of control	B18
82.7 % of control	B19
85.8 % of control	B20
91.2 % of control	B21
85.9 % of control	B22
134 % of control	B23
126 % of control	B24
89.8 % of control	B25

Biological target: T4, FcγRIIIa extracellular domain, His-tagged (human, UniProt P08637 17-208)
T4 construct: extracellular domain; also called 3a
Test: SPR, vs GpH7-A5/GpH7-B3/GpL16-k0 =100

T4 sequence (P08637 other isoform, or with tags, fused parts or gaps): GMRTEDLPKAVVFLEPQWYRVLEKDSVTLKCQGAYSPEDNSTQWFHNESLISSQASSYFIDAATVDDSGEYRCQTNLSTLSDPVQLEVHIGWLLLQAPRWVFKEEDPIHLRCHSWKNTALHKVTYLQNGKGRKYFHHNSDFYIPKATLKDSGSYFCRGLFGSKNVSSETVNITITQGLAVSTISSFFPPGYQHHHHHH

He/Con 3a	Binder
90.3 % of control	B1
65.1 % of control	B2
112 % of control	B3
55.4 % of control	B4
61.6 % of control	B5
68 % of control	B6
106 % of control	B7
62.1 % of control	B8
59.7 % of control	B9
77 % of control	B10
66.2 % of control	B11
65.8 % of control	B12
60.3 % of control	B13
126 % of control	B14
95.7 % of control	B15
121 % of control	B16
91.4 % of control	B17
96 % of control	B18
75.6 % of control	B19
79.5 % of control	B20
84.1 % of control	B21
75.9 % of control	B22
195 % of control	B23
184 % of control	B24
81.6 % of control	B25

Biological target: T2, FcγRIIa(R) extracellular domain, …
Test: SPR, vs GpH7-A5/GpH7-B3/GpL16-k0 =100

He/Con 2aR	Binder
100 % of control	B1
62.8 % of control	B2
85.7 % of control	B3
72.2 % of control	B4
70.3 % of control	B5
70.2 % of control	B6
113 % of control	B7
65.8 % of control	B8
71 % of control	B9
145 % of control	B10
105 % of control	B11
124 % of control	B12
135 % of control	B13
77.3 % of control	B14
134 % of control	B15
143 % of control	B16
117 % of control	B17
105 % of control	B18
114 % of control	B19
87.2 % of control	B20
102 % of control	B21
91.4 % of control	B22
161 % of control	B23
159 % of control	B24
108 % of control	B25

Biological target: T3, FcγRIIb extracellular domain, His-tagged
Test: SPR, vs GpH7-A5/GpH7-B3/GpL16-k0 =100

He/Con 2b	Binder
90.3 % of control	B1
50.8 % of control	B2
72.5 % of control	B3
54.8 % of control	B4
54.1 % of control	B5
52.4 % of control	B6
110 % of control	B7
50.2 % of control	B8
53.2 % of control	B9
101 % of control	B10
174 % of control	B11
115 % of control	B12
101 % of control	B13
60.7 % of control	B14
151 % of control	B15
175 % of control	B16
120 % of control	B17
94.2 % of control	B18
122 % of control	B19
69 % of control	B20
93.4 % of control	B21
71.2 % of control	B22
251 % of control	B23
242 % of control	B24
87.2 % of control	B25

Biological target: T5, FcγRIa extracellular domain, His-tagged (human, UniProt P12314 16-292)
T5 construct: extracellular domain; also called 1a
Test: SPR, vs GpH7-A5/GpH7-B3/GpL16-k0 =100

T5 sequence (P12314 other isoform, or with tags, fused parts or gaps): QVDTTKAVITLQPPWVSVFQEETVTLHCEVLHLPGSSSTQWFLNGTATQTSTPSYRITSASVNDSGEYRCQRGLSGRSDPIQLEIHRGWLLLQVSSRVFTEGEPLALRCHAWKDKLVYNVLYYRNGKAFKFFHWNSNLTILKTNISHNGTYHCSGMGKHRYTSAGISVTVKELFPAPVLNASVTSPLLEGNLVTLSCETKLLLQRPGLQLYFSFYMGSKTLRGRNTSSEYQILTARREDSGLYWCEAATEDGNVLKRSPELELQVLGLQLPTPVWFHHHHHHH

He/Con 1a	Binder
108 % of control	B1
93.2 % of control	B2
104 % of control	B3
89.5 % of control	B4
101 % of control	B5
101 % of control	B6
103 % of control	B7
99.8 % of control	B8
102 % of control	B9
99.1 % of control	B10
95.5 % of control	B11
92.6 % of control	B12
96 % of control	B13
104 % of control	B14
104 % of control	B15
105 % of control	B16
103 % of control	B17
103 % of control	B18
106 % of control	B19
101 % of control	B20
104 % of control	B21
104 % of control	B22
106 % of control	B23
107 % of control	B24
102 % of control	B25

Biological target: T6, FcγRIIIa extracellular domain, C-terminal His tag (human, UniProt P08637 17-208)
T6 construct: extracellular domain; also called 3a
Test: SPR, binding activity relative to GpH7-A5/GpH7-B3/GpL16-k0 (=100)

T6 sequence (P08637 other isoform, or with tags, fused parts or gaps): as the sequence (P08637 other isoform, or with tags, fused parts or gaps) above

He/Con 3a	Binder
113%	B26
63.7%	B27
80.3%	B28
92.8%	B29
102%	B30
96%	B31
105%	B32
101%	B33
